# Data: patent publication US20100196934A1
# Values joined by “and” are separate entries in the source; they are usually repeats but may differ in a detail not shown here. Equal entries are not always repeated. Where two headings read alike, the source gives them in different places.
# Key:
# [1] = target: Bovine recombinant PrP (bovine); assay: direct ELISA, coated denatured rPrP 1 ng/assay
# [2] = target: Deer recombinant PrP (deer); assay: direct ELISA, coated denatured rPrP 1 ng/assay
# [3] = target: Human recombinant PrP (human); assay: direct ELISA, coated denatured rPrP 1 ng/assay
# [4] = target: Mouse recombinant PrP (mouse); assay: direct ELISA, coated denatured rPrP 1 ng/assay
# [5] = target: Sheep recombinant PrP (sheep); assay: direct ELISA, coated denatured rPrP 1 ng/assay
# [6] = target: Bovine recombinant PrP (bovine); assay: direct ELISA, coated denatured rPrP 0.1 ng/assay
# [7] = target: Deer recombinant PrP (deer); assay: direct ELISA, coated denatured rPrP 0.1 ng/assay
# [8] = target: Human recombinant PrP (human); assay: direct ELISA, coated denatured rPrP 0.1 ng/assay
# [9] = target: Mouse recombinant PrP (mouse); assay: direct ELISA, coated denatured rPrP 0.1 ng/assay
# [10] = target: Sheep recombinant PrP (sheep); assay: direct ELISA, coated denatured rPrP 0.1 ng/assay
# Mouse BH PrP^Sc (mouse) [11] = assay: direct ELISA, coated denatured mouse BH PrP^Sc 1 mg BH/assay
# Mouse BH PrP^Sc (mouse) [12] = assay: direct ELISA, coated denatured mouse BH PrP^Sc 0.1 mg BH/assay
# [13] = target: Syrian hamster PrP^Sc (scrapie-infected SHa brain homogenate) (Syrian hamster)
# [14] = target: Syrian hamster PrP^C (normal SHa brain homogenate) (Syrian hamster); assay: sandwich ELISA, capture 3F4; normal SHa BH, PK 0 ug/mL, NaOH-denatured
# [15] = target: Syrian hamster PrP^C (normal SHa brain homogenate) (Syrian hamster); assay: sandwich ELISA, capture 3F4; normal SHa BH, PK 5 ug/mL, NaOH-denatured
# [16] = target: Syrian hamster PrP^C (normal SHa brain homogenate) (Syrian hamster); assay: sandwich ELISA, capture 3F4; normal SHa BH, PK 10 ug/mL, NaOH-denatured
# [17] = target: Syrian hamster PrP^C (normal SHa brain homogenate) (Syrian hamster); assay: sandwich ELISA, capture 3F4; normal SHa BH, PK 20 ug/mL, NaOH-denatured
# [18] = target: Syrian hamster PrP^C (normal SHa brain homogenate) (Syrian hamster); assay: sandwich ELISA, capture 3F4; normal SHa BH, PK 50 ug/mL, NaOH-denatured
# [19] = target: Syrian hamster PrP^C (normal SHa brain homogenate) (Syrian hamster); assay: sandwich ELISA, capture 3F4; normal SHa BH, PK 100 ug/mL, NaOH-denatured
# [20] = target: Syrian hamster PrP^C (normal SHa brain homogenate) (Syrian hamster); assay: sandwich ELISA, capture 3F4; normal SHa BH, PK 25 ug/mL, GdnHCl-denatured
# [21] = target: Syrian hamster PrP^C (normal SHa brain homogenate) (Syrian hamster); assay: sandwich ELISA, capture 3F4; normal SHa BH, trypsin 0 ug/mL, not denatured
# [22] = target: Syrian hamster PrP^C (normal SHa brain homogenate) (Syrian hamster); assay: sandwich ELISA, capture 3F4; normal SHa BH, trypsin 25 ug/mL, not denatured
# [23] = target: Syrian hamster PrP^C (normal SHa brain homogenate) (Syrian hamster); assay: sandwich ELISA, capture 3F4; normal SHa BH, trypsin 50 ug/mL, not denatured
# [24] = target: Syrian hamster PrP^C (normal SHa brain homogenate) (Syrian hamster); assay: sandwich ELISA, capture POM17; normal SHa BH, PK 25 ug/mL, GdnHCl-denatured
# [25] = target: Syrian hamster PrP^C (normal SHa brain homogenate) (Syrian hamster); assay: sandwich ELISA, capture 3F4; normal SHa BH, trypsin 0 ug/mL, NaOH-denatured
# [26] = target: Syrian hamster PrP^C (normal SHa brain homogenate) (Syrian hamster); assay: sandwich ELISA, capture 3F4; normal SHa BH, trypsin 5 ug/mL, NaOH-denatured
# [27] = target: Syrian hamster PrP^C (normal SHa brain homogenate) (Syrian hamster); assay: sandwich ELISA, capture 3F4; normal SHa BH, trypsin 100 ug/mL, not denatured
# [28] = target: Syrian hamster PrP^C (normal SHa brain homogenate) (Syrian hamster); assay: sandwich ELISA, capture 3F4; normal SHa BH, trypsin 10 ug/mL, NaOH-denatured
# [29] = target: Syrian hamster PrP^C (normal SHa brain homogenate) (Syrian hamster); assay: sandwich ELISA, capture 3F4; normal SHa BH, trypsin 20 ug/mL, NaOH-denatured
# [30] = target: Syrian hamster PrP^C (normal SHa brain homogenate) (Syrian hamster); assay: sandwich ELISA, capture 3F4; normal SHa BH, trypsin 50 ug/mL, NaOH-denatured
# [31] = target: Syrian hamster PrP^Sc (scrapie-infected SHa brain homogenate) (Syrian hamster); assay: sandwich ELISA, capture 3F4; infectious SHa BH, PK 25 ug/mL, GdnHCl-denatured
# [32] = target: Syrian hamster PrP^C (normal SHa brain homogenate) (Syrian hamster); assay: sandwich ELISA, capture 3F4; normal SHa BH, trypsin 100 ug/mL, NaOH-denatured
# [33] = target: Syrian hamster PrP^C (normal SHa brain homogenate) (Syrian hamster); assay: sandwich ELISA, capture 3F4; normal SHa BH, trypsin 25 ug/mL, GdnHCl-denatured
# [34] = target: Syrian hamster PrP^Sc (scrapie-infected SHa brain homogenate) (Syrian hamster); assay: sandwich ELISA, capture POM17; infectious SHa BH, PK 25 ug/mL, GdnHCl-denatured
# [35] = target: Human PrP^C (normal human plasma; normal human brain homogenate) (human); assay: sandwich ELISA, capture 3F4; normal human plasma, trypsin 0 ug/mL, not denatured
# [36] = target: Syrian hamster PrP^C (normal SHa brain homogenate) (Syrian hamster); assay: sandwich ELISA, capture POM17; normal SHa BH, trypsin 25 ug/mL, GdnHCl-denatured
# [37] = target: Syrian hamster PrP^Sc (scrapie-infected SHa brain homogenate) (Syrian hamster); assay: sandwich ELISA, capture 3F4; scrapie-infected SHa BH, PK 0 ug/mL, NaOH-denatured
# [38] = target: Syrian hamster PrP^Sc (scrapie-infected SHa brain homogenate) (Syrian hamster); assay: sandwich ELISA, capture 3F4; scrapie-infected SHa BH, PK 5 ug/mL, NaOH-denatured
# [39] = target: Syrian hamster PrP^C (normal SHa brain homogenate) (Syrian hamster); assay: sandwich ELISA, capture POM2; normal SHa BH, PK 25 ug/mL, GdnHCl-denatured
# [40] = target: Syrian hamster PrP^Sc (scrapie-infected SHa brain homogenate) (Syrian hamster); assay: sandwich ELISA, capture POM2; infectious SHa BH, PK 25 ug/mL, GdnHCl-denatured
# [41] = target: Syrian hamster PrP^C (normal SHa brain homogenate) (Syrian hamster); assay: sandwich ELISA, capture POM2; normal SHa BH, trypsin 25 ug/mL, GdnHCl-denatured
# [42] = target: Human PrP^C (normal human plasma; normal human brain homogenate) (human)
# [43] = target: Human PrP^Sc of vCJD brain homogenate (vCJD MM, White strain) (human)
# [44] = target: Human PrP^Sc of vCJD brain homogenate (vCJD MM, White strain) (human); assay: sandwich ELISA, capture SAF-32; vCJD human BH, PK 25 ug/mL, un-denatured
# [45] = target: Human PrP^C (normal human plasma; normal human brain homogenate) (human); assay: sandwich ELISA, capture SAF-32; normal human BH, PK 25 ug/mL, un-denatured
# [46] = target: Human PrP^Sc of vCJD brain homogenate (vCJD MM, White strain) (human); assay: sandwich ELISA, capture SAF-32; vCJD human BH, trypsin 25 ug/mL, un-denatured
# [47] = target: Human PrP^C (normal human plasma; normal human brain homogenate) (human); assay: sandwich ELISA, capture SAF-32; normal human BH, trypsin 25 ug/mL, un-denatured
# [48] = target: Human PrP^Sc of vCJD brain homogenate (vCJD MM, White strain) (human); assay: sandwich ELISA, capture SAF-32; vCJD human BH, PK 25 ug/mL, 4M GdnHCl-denatured
substance,measurement,setting,value
Mouse anti Prion (SAF-83) (antibody),RLU,[1],50.8 RLU
same,RLU,[2],125 RLU
same,RLU,[3],67 RLU
same,RLU,[4],2230 RLU
same,RLU,[5],115 RLU
same,RLU,[6],45.7 RLU
same,RLU,[7],122 RLU
same,RLU,[8],65.2 RLU
same,RLU,[9],181 RLU
same,RLU,[10],98.1 RLU
same,RLU,Mouse BH PrP^Sc (mouse) [11],1730 RLU
same,RLU,Mouse BH PrP^Sc (mouse) [12],274 RLU
POM2 antibody,RLU,[13],2370 RLU and 2250 RLU
same,RLU,[14],1950 RLU
same,RLU,[15],84.1 RLU
same,RLU,[16],50.2 RLU
same,RLU,[17],37.1 RLU
same,RLU,[18],15.8 RLU
same,RLU,[19],4.6 RLU
same,RLU,[20],10 RLU
same,RLU,[21],2940 RLU
same,RLU,[22],20.5 RLU
same,RLU,[23],14.9 RLU
same,RLU,[24],13.4 RLU
same,RLU,[25],2140 RLU
same,RLU,[26],33.2 RLU
same,RLU,[27],11.7 RLU
same,RLU,[28],19.7 RLU
same,RLU,[29],8.5 RLU
same,RLU,[30],3.4 RLU
same,RLU,[31],527 RLU
same,RLU,[32],3.4 RLU
same,RLU,[33],21.4 RLU
same,RLU,[34],596 RLU
same,RLU,[35],195 RLU
same,RLU,[36],70.6 RLU
same,RLU,[37],2290 RLU
same,RLU,[38],2310 RLU
POM17 antibody,RLU,[13],254 RLU and 381 RLU
same,RLU,[14],1680 RLU
same,RLU,[15],11.4 RLU
same,RLU,[16],7.2 RLU
same,RLU,[17],5.5 RLU
same,RLU,[18],3.3 RLU
same,RLU,[19],2.8 RLU
same,RLU,[20],1.7 RLU
same,RLU,[39],1.8 RLU
same,RLU,[25],1660 RLU
same,RLU,[26],8.5 RLU
same,RLU,[28],4.5 RLU
same,RLU,[29],2.8 RLU
same,RLU,[30],2 RLU
same,RLU,[31],200 RLU
same,RLU,[32],2.6 RLU
same,RLU,[33],2 RLU
same,RLU,[40],68.4 RLU
same,RLU,[41],14.6 RLU
same,RLU,[37],3860 RLU
same,RLU,[38],2480 RLU
mAb 6H4 (antibody),RLU,[1],691 RLU
same,RLU,[2],222 RLU
same,RLU,[3],192 RLU
same,RLU,[4],332 RLU
same,RLU,[5],160 RLU
same,RLU,[6],89.1 RLU
same,RLU,[7],92.4 RLU
same,RLU,[8],72.7 RLU
same,RLU,[9],104 RLU
same,RLU,[10],125 RLU
same,RLU,Mouse BH PrP^Sc (mouse) [11],610 RLU
same,RLU,Mouse BH PrP^Sc (mouse) [12],178 RLU
mAb to prion 7D9 (antibody),RLU,[1],961 RLU
same,RLU,[2],117 RLU
same,RLU,[3],66.1 RLU
same,RLU,[4],769 RLU
same,RLU,[5],993 RLU
same,RLU,[6],149 RLU
same,RLU,[7],121 RLU
same,RLU,[8],81.4 RLU
same,RLU,[9],118 RLU
same,RLU,[10],230 RLU
same,RLU,Mouse BH PrP^Sc (mouse) [11],614 RLU
same,RLU,Mouse BH PrP^Sc (mouse) [12],159 RLU
mAb to prion BDI115 (antibody),RLU,[1],177 RLU
same,RLU,[2],160 RLU
same,RLU,[3],74.3 RLU
same,RLU,[4],86.7 RLU
same,RLU,[5],104 RLU
same,RLU,[6],59.1 RLU
same,RLU,[7],105 RLU
same,RLU,[8],48 RLU
same,RLU,[9],54.7 RLU
same,RLU,[10],108 RLU
same,RLU,Mouse BH PrP^Sc (mouse) [11],116 RLU
same,RLU,Mouse BH PrP^Sc (mouse) [12],119 RLU
monoclonal antibody 3F4,RLU,[42],50.4 RLU and 18.1 RLU
same,RLU,[43],1650 RLU
same,RLU,[44],10 RLU
same,RLU,[45],7.7 RLU
same,RLU,[46],15.1 RLU
same,RLU,[47],6.1 RLU
same,RLU,[48],226 RLU
